Among the data in the supplement of paper PMC10126150 are switch fluorescence ratio values, retold here.

± gives the standard deviation of the averaged measurements.

The data set relates to ATP. Put plainly: switch fluorescence ratio, 500 uM ATP over buffer (Cy3 cluster intensity, sum of 5 cycles each) (fold (ratio)); higher = stronger signal-on switching upon ATP binding; sequences stand for … in TCGTCGGCAGCGTCAGATGTGTATAAGAGACAGTTTTTTTTTTTTTTTTTTTTTTTTT…TC. The following applies: aptamer strand: ATP DNA aptamer (quencher-CACCTGGGGGAGTATTGCGGAGGAAGG + anchor), 100 nM annealed; ATP concentration: 500 uM. Put shortly: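 Values give the fluorescence ratio for each switch-domain sequence, averaged from per-cluster ratios of summed target-cycle to summed buffer-cycle Cy3 intensity. The Cy3-labelled switching-strand clusters sat on a modified Illumina MiSeq flow-cell, were annealed to 100 nM quencher-labelled ATP aptamer, and were imaged in selection buffer, then after 15 min with 500 uM ATP at 22 °C. Five cycles ran with NaOH stripping and re-annealing between them, and clusters outside 100-1000 RFU were excluded.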
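Note: ATP exposure 15 min at 22 °C before imaging.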

Turning to AGATGTTTGT, the switch fluorescence ratio stood at 1.01 ± 0.038.
With AGATTAAGTA, the switch fluorescence ratio is 0.989 ± 0.024.
Consider AGATTAATTG, for which the switch fluorescence ratio was 0.994 ± 0.008.
Next, AGATTAATTT: 0.986 ± 0.021; AGATTACTGC: 1.01 ± 0.023; AGATTAGGCA: 0.992 ± 0.013.
Next, AGATTCTGGG: 0.971 ± 0.016; AGATTCTGTA: 0.97 ± 0.011; AGATTGAGCG: 1 ± 0.019.
The result for AGATTGATCG reads 1.02 ± 0.015.
AGATTGATGC: the switch fluorescence ratio came to 1.03 ± 0.03.
The result for AGATTGCATG reads 1.029 ± 0.0077; that for AGATTGCCGG, 0.97 ± 0.034; that for AGATTGGACG, 1.02 ± 0.024.
As to AGATTGGGGA, the switch fluorescence ratio was found to be 1.01 ± 0.013.
For AGATTGGGTA, the switch fluorescence ratio came to 1.01 ± 0.024.
The result for AGATTGGGTT reads 0.967 ± 0.024; that for AGATTGTGCT, 0.975 ± 0.046.
For the sequence AGATTTACTT, the switch fluorescence ratio came out at 0.985 ± 0.014.
Take AGATTTAGTC: the switch fluorescence ratio came out at 1 ± 0.051.
Next, AGATTTGCTA: 1.004 ± 0.0078; AGATTTTTAT: 0.983 ± 0.012; AGCAAATGGT: 1.07 ± 0.051.
The result for AGCAACATAA reads 1.13 ± 0.022.
Regarding AGCAACATTA, the switch fluorescence ratio stood at 1.06 ± 0.025.
The result for AGCAACCCCG reads 1.22 ± 0.17; that for AGCAAGGCGT, 1.03 ± 0.043.
The result for AGCAAGGGGG reads 1.09 ± 0.11; that for AGCAATGTCT, 1.26 ± 0.065; that for AGCAATTTTT, 1.1 ± 0.034.
Next, AGCACGGGTA: 1.008 ± 0.0055; AGCACTGCTG: 1.01 ± 0.014; AGCAGAAGGA: 1.02 ± 0.015.
For AGCAGCTAAG, the switch fluorescence ratio is 0.995 ± 0.01.
Next, AGCAGCTGGG: 1.01 ± 0.012; AGCAGGGGCT: 1.025 ± 0.0069; AGCAGGGGGG: 1.06 ± 0.067.
Turning to AGCAGGGGTA, the switch fluorescence ratio was 1.17 ± 0.26.
Next, AGCAGTTCGG: 1 ± 0.036; AGCATACCTT: 1.11 ± 0.17.
The result for AGCATAGCAT reads 1.01 ± 0.019.
Next, AGCATGGTAT: 1 ± 0.04; AGCCAGTTTT: 0.9892 ± 0.0073; AGCCATTTTG: 1.02 ± 0.022.
For AGCCCGCGCA, the switch fluorescence ratio is 1.03 ± 0.028.
The result for AGCCGAGTTC reads 1.01 ± 0.049; that for AGCCGGATCA, 0.9931 ± 0.0056.
The result for AGCCGGGTAG reads 1.053 ± 0.0086.
Next, AGCCTTATCC: 1.09 ± 0.02; AGCCTTTTTG: 0.992 ± 0.042.
As for AGCGAAATCA, the switch fluorescence ratio was found to be 1 ± 0.078.
The result for AGCGAAGATG reads 1 ± 0.033; that for AGCGAAGCTG, 1.01 ± 0.011.
Consider AGCGACCGTT, for which the switch fluorescence ratio amounted to 1.032 ± 0.0078.
Next, AGCGACGTTT: 0.9647 ± 0.0064; AGCGAGTGTG: 1 ± 0.026; AGCGATAGTC: 1.56 ± 0.024.
The result for AGCGATAGTT reads 1.1 ± 0.038; that for AGCGATCGGT, 1.03 ± 0.014.
With AGCGATGCTT, the switch fluorescence ratio was 1.133 ± 0.011.
The result for AGCGATTTAT reads 1.03 ± 0.0079.
As to AGCGCGAATG, the switch fluorescence ratio is 1.01 ± 0.018.
AGCGCTGCCT: the switch fluorescence ratio came to 0.996 ± 0.031.
Next, AGCGCTTGTG: 1.02 ± 0.038.
The result for AGCGGGGGTT reads 0.9996 ± 0.0055.
The result for AGCGGGTCCG reads 0.987 ± 0.017; that for AGCGGTCAGT, 0.9776 ± 0.0075.
Consider AGCGGTCTGG, for which the switch fluorescence ratio was found to be 1 ± 0.013.
As for AGCGTAGTCA, the switch fluorescence ratio turned out to be 0.9868 ± 0.0021.
The result for AGCGTATGTG reads 1.02 ± 0.062; that for AGCGTTAGTG, 1.06 ± 0.013.
The result for AGCGTTCTGG reads 1.04 ± 0.041; that for AGCGTTGTG, 1.01 ± 0.044.
AGCGTTTTCA: the switch fluorescence ratio stood at 0.994 ± 0.04.
Next, AGCTAAAACG: 1.14 ± 0.19.
The result for AGCTACACGT reads 1.05 ± 0.014; that for AGCTACTTTT, 1.022 ± 0.0035.
Next, AGCTCTAAGA: 1.02 ± 0.021; AGCTCTGCGA: 1.09 ± 0.039.
As for AGCTGATACG, the switch fluorescence ratio came to 1.31 ± 0.0078.
As for AGCTGCATG, the switch fluorescence ratio was found to be 0.997 ± 0.024.
As for AGCTGGGGTA, the switch fluorescence ratio was determined as 0.951 ± 0.029.
Next, AGCTGGTCGT: 0.97265 ± 0.00075; AGCTGTACTA: 1.21 ± 0.029; AGCTGTAGTA: 1.01 ± 0.011.
The result for AGCTGTTTGG reads 1 ± 0.015; that for AGCTTAAGGA, 1.03 ± 0.035; that for AGCTTAGGTC, 1.03 ± 0.029.
Next, AGCTTCGTGG: 0.971 ± 0.019; AGCTTCTTAT: 1.03 ± 0.028; AGCTTGCTAT: 0.97 ± 0.011.
With AGCTTGGGCG, the switch fluorescence ratio was determined as 0.995 ± 0.11.
The result for AGCTTGTGTG reads 1.01 ± 0.061; that for AGCTTTACGG, 1.04 ± 0.019.
The result for AGCTTTAGGG reads 0.9905 ± 0.0022; that for AGCTTTATGC, 0.935 ± 0.043; that for AGCTTTATTT, 1.06 ± 0.12.
Next, AGCTTTGTC: 0.989 ± 0.043.
AGCTTTGTTT: the switch fluorescence ratio is 1.01 ± 0.013.
The result for AGCTTTTGAA reads 1.006 ± 0.0026; that for AGCTTTTTGC, 1.02 ± 0.038; that for AGGAAACTTA, 0.988 ± 0.0076.
The result for AGGAAAGAAT reads 0.968 ± 0.056; that for AGGAAAGATT, 1.01 ± 0.028; that for AGGAAATAGG, 0.963 ± 0.049.
Next, AGGAAATATT: 1.01 ± 0.012; AGGAAGGCGG: 1.02 ± 0.035; AGGAAGGGGT: 0.979 ± 0.033.
For AGGAAGGGTG, the switch fluorescence ratio stood at 1.04 ± 0.022.
Take AGGAAGGGTT: the switch fluorescence ratio is 1.05 ± 0.12.
The result for AGGAAGGTGT reads 1.13 ± 0.2.
The result for AGGAAGTTGG reads 0.97916 ± 0.00082.
The result for AGGAATCGTT reads 0.9969 ± 0.0072; that for AGGAATGACT, 1 ± 0.023.
Turning to AGGAATTCGG, the switch fluorescence ratio came to 0.999 ± 0.017.
Next, AGGAATTGCT: 1.03 ± 0.018; AGGAATTTGG: 0.978 ± 0.024.
Next, AGGACAAAGG: 0.989 ± 0.041; AGGACAGCGC: 1.024 ± 0.008.
Next, AGGACAGGGT: 0.972 ± 0.011.
